Data as given in patent US20260061042A1, “POLYNUCLEOTIDE COMPOSITIONS AND USES THEREOF” (Pfizer Inc., priority 2024, published 2026).

Test system: E. coli strain CFT073 expressing the fimbrial adhesin PapG
Assay: PapG hemagglutination inhibition (HAI) assay on sera of mice immunized with PapG modRNA LNPs
Assay type: in vivo
Conditions: 1 μg, 50 μl IM; for Step Titer GMT (HAI): weeks 0, 4, bleed week 6, GMT of individual titers; for Step Titer Pool (HAI): weeks 0, 4, bleed week 6, serum pool
Source text: Escherichia coli to the uroepithelium of human kidney. The PapG lectin binds to the globoside (GbO4) glycolipid, which is enriched in urinary tract tissue and consists of the tetrasacharide GalNAcβ1-3Galα1-4Galβ1-4Glc linked to ceramide. Here we present the use of a hemagglutination inhibition assay (HAI) to determine vaccine functional responses to protein subunit PapG or mRNA-expressed PapG antigens. In this assay the agglutination of human red blood cells (hRBCs) expressing GbO4 is caused by live E. coli CFT073 bacteria expressing PapG. The HAI assay measures the ability of PapG-elicited antibodies to prevent hRBC agglutination, exemplifying inhibition of the key bacterial adherence mechanism leading to clinical pyelonephritis. The assay was used to characterize the functional activity of PapG monoclonal antibodies (mAbs) raised against a PapG lectin domain subunit antigen. PapG HAI data from a mouse immunogenicity study are described that evaluated various 5 monovalent PapG modRNA LNPs and a PapG subunit comparator.
In this mouse study immunogenicity of different PapG mRNA constructs were evaluated. […]
iii. PapG Hemagglutination Inhibition Assay (HAI) 1. Preparation of Single Use Frozen E. coli CFT073 Banks Frozen bacterial stocks for use in the PapG HAI are stored at a concentration of ˜15 OD/mL. For stock preparation, take 6 ×100 μL of frozen parental strain CFT073 glycerol stock to seed six overnight cultures with ˜85 mL Luria's Broth (LB) each in 250 mL vented flasks. Flasks are shaken at 200 rpm and 37° C. overnight. On the same day, prepare 100 mL LB media with 30% glycerol and 0.4% sucrose by mixing […] 80% Glycerol with 0.8 mL 50% Sucrose in 64 mL LB and pre-chill at 4° C. After ˜16 h growth, determine the OD600 nm of each flask with the SpectraMax M5e plate reader by adding 100 μL culture to 900 μL LB (1:10 dilution). After reading the OD600, harvest cells by pelleting in a centrifuge at 4,000g, 4° C., for 30 minute. Determine the total OD of each of the six flasks, by multiplying the volume by OD/mL of each flask and divide by 15 OD to give the appropriate pellet resuspension volume. Discard supernatants and resuspend all pellets in the pre-chilled LB cryopreservant containing 30% glycerol and 0.4% sucrose, with a final volume as calculated above. Pool all resuspended pellets and mix gently, then aliquot into 1 mL/cryotube, and freeze at −70° C.
2. Preparing 10% hRBC Working Solution From Stock
Gently mix human red blood cells (hRBC) bottle (Rockland) by rocking ˜20×times, pipet out 10 mL of the hRBCs into a 15 ml conical tube. Centrifuge at 2,000 rpm(˜990×g) for 10 minutes and 4° C. Aspirate and discard the supernatant, then resuspend the pellet with 9 mL 4° C. PBS. The packed hRBCs in 15 mL conical tube should constitute roughly 1 mL of this total volume. Store these 10% hRBCs at 4° C. until use. […]
iv. PapG Hemagglutination Inhibition (HAI) Assay
The PapG hemagglutination inhibition (HAI) assay uses human red blood cells (hRBCs), which naturally express the PapG ligand GbO4 (globotetraosyl ceramide) on the cell surface, and the E. coli strain CFT073 expressing the fimbrial adhesin PapG. Upon mixing bacteria with hRBCs, […] cells remain suspended (presenting as a cloudy well), while no binding results in the red blood cells falling out of solution towards the center of the well (observed as pellet).
The total final well volume is 100 μL, with serum dilutions comprising 25 μL of this volume, strain CFT073 cells in […] volume, and hRBCs in a 50 μL volume. The assay plate is a V-bottom plate to which 25 μL 4° C. PBS is initially added to all wells. The positive control wells receive an additional 25 μL 4° C. PBS. The no-serum negative control consists of E. coli CFT073 cells plus hRBCs only (resulting agglutinated well appears cloudy). To accommodate pre-diluted sera transferred from the serum Master Dilution plate (MDP) an extra 5 μL 4° C. PBS is added to wells in Row A of the assay plate (columns 1 to 12). […]

| Molecule | Step Titer GMT (HAI) | Step Titer Pool (HAI) |
| --- | --- | --- |
| BMD576_PapG-DSF WT_DAF-GPI: monovalent PapG modRNA LNP; RNA construct SEQ ID NO: 65 (nucleic acid, modRNA in LNP) AGGAGGACUGGUCGAACCUGCAUAGUGAUCAUAAGGUCAGCAUAGCCACCAUGGAGACCGACACCCUCCUGCUGUGGGUGCUGUUACUGUGGGUGCCCGGUAGCACCGGCUGGAACAACAUCGUGUUCUACAGCCUGGGCAACGUGAACAGCUACCAAGGCGGCAACGUGGUGAUCACACAGAGACCUCAGUUCAUCACAAGCUGGAGACCCGGCAUCGCCACCGUGACCUGGAAUCAGUGCAACGGCCCCGAGUUCGCCGACGGCAGCUGGGCCUACUACAGAGAGUACAUCGCCUGGGUGGUGUUCCCCAAGAAGGUGAUGACCAAGAACGGCUACCCCCUGUUCAUCGAGGUGCACAACAAGGGCAGCUGGAGCGAGGAGAACACCGGCGACAGCGACAGCUACUUCUUCCUGAAGGGCUACAAGUGGGACGAGAGAGCCUUCGACGCCGGCAACCUGUGUCAGAAGCCGGGGGAGACCACAAGACUUACCGAGAAGUUCAACGACAUCAUCUUCAAGGUGGCCCUGCCCGCCGACCUGCCCCUGGGCGACUACAGCGUGACCAUCCCCUACACAAGCGGCAUUCAGAGACACUUCGCUAGCUACCUGGGCGCUAGAUUCAAGAUCCCCUACAACGUGGCCAAGACCCUGCCUAGAGAGAACGAGAUGCUGUUCCUGUUCAAGAACAUCGGCGGCUGCAGACCUAGCGCUCAGAGCCUGGAGAUCAAGCACGGCGACCUGAGCAUCAACAGCGCCAACAACCACUACGCCGCUCAGACCCUGAGCGUGAGCUGCGACGUGCCCGCCAACAUCAGAUUCAUGCUGCUGAGAUCAACCACCCCCACCUACAGCCACGGCAAGAAGUUCAGCGUGGGCCUGGGCCACGGCUGGGACAGCAUCGUGAGCGUGAACGGCGUGGACACGGGCGAGACCACUAUGCGUUGGUACAAGGCCGGCACACAGAGCCUGACCAUCGGCAGCAGACUGUAUGGCGAAAGCUCCAAAAUCCAACCCGGCGUGCUGUCGGGGAGCGCCACCCUGCUGAUGAUACUGCCCGGAGGCAGCAGCGGCGGCGCCGACGUGCAGAUCAACAUCAGAGGCAACGUGUAUAUUCCGCCUAGCAGUGGUGGUGGGGGUAGCUCCGGCUCCGGAAGCAGCUGCGAGGGCAUCAGCCUGCUGGCUCAGAACACAAGCUGGCUGCUGCUGCUGCUGCUGAGCCUGAGCCUGCUGCAAGCCACCGACUUCAUGAGCCUGUGAUGAGCUCGCUUUCUUGCUGUCCAAUUUCUAUUAAAGGUUCCUUUGUUCCCUAAGUCCAACUACUAAACUGGGGGAUAUUAUGAAGGGCCUUGAGCAUCUGGAUUCUGCCUAAUAAAAAACAUUUAUUUUCAUUGCAAAAAAAAAAAAAAAAAAAAAAAAAAAAAAAAAAAAAAAAAAAAAAAAAAAAAAAAAAAAAAAAAAAAAAAAAAAAAAAAAA | 89,753 | 81,000 |
| BMD576_PapGLD WT_DAF-GPI: monovalent PapG modRNA LNP; RNA construct SEQ ID NO: 45 (nucleic acid, modRNA in LNP) AGGAGGACUGGUCGAACCUGCAUAGUGAUCAUAAGGUCAGCAUAGCCACCAUGGAGACCGACACACUGCUGCUGUGGGUGCUUUUGUUGUGGGUGCCCGGUUCUACCGGAUGGAACAACAUCGUGUUCUACAGCCUGGGCAACGUGAACAGCUACCAAGGCGGCAACGUGGUGAUCACACAGAGACCUCAGUUCAUCACAAGCUGGAGACCCGGCAUCGCCACCGUGACCUGGAAUCAGUGCAACGGCCCCGAGUUCGCCGACGGCAGCUGGGCCUACUACAGAGAGUACAUCGCCUGGGUGGUGUUCCCCAAGAAGGUGAUGACCAAGAACGGCUACCCCCUGUUCAUCGAGGUGCACAACAAGGGCAGCUGGAGCGAGGAGAACACCGGCGACAGCGACAGCUACUUCUUCCUGAAGGGCUACAAGUGGGACGAGAGAGCCUUCGACGCCGGCAACCUGUGUCAGAAGCCCGGCGAGACCACAAGACUGACCGAGAAGUUCAACGACAUCAUCUUCAAGGUGGCCCUGCCCGCCGACCUGCCCCUGGGCGACUACAGCGUGACCAUCCCCUACACAAGCGGCAUUCAGAGACACUUCGCUAGCUACCUGGGCGCUAGAUUCAAGAUCCCCUACAACGUGGCCAAGACCCUGCCUAGAGAGAACGAGAUGCUGUUCCUGUUCAAGAACAUCGGCGGCAGUUCUGGUGGCGGUGGUUCAAGUGGUAGUGGCAGUUCAAGUGGGACAACACGACUGUUGAGCGGGCAUACGUGUUUUACGCUGACAGGUCUUCUGGGCACGCUGGUUACUAUGGGCUUGCUUACGUGAUGAGCUCGCUUUCUUGCUGUCCAAUUUCUAUUAAAGGUUCCUUUGUUCCCUAAGUCCAACUACUAAACUGGGGGAUAUUAUGAAGGGCCUUGAGCAUCUGGAUUCUGCCUAAUAAAAAACAUUUAUUUUCAUUGCAAAAAAAAAAAAAAAAAAAAAAAAAAAAAAAAAAAAAAAAAAAAAAAAAAAAAAAAAAAAAAAAAAAAAAAAAAAAAAAAAA | 94,822 | 81,000 |
| BMD576_PapGLD K172A_DAF-GPI: monovalent PapG modRNA LNP; RNA construct SEQ ID NO: 52 (nucleic acid, modRNA in LNP) AGGAGGACUGGUCGAACCUGCAUAGUGAUCAUAAGGUCAGCAUAGCCACCAUGGAGACCGACACACUGCUGCUGUGGGUGCUUUUGUUGUGGGUGCCCGGUUCUACCGGAUGGAACAACAUCGUGUUCUACAGCCUGGGCAACGUGAACAGCUACCAAGGCGGCAACGUGGUGAUCACACAGAGACCUCAGUUCAUCACAAGCUGGAGACCCGGCAUCGCCACCGUGACCUGGAAUCAGUGCAACGGCCCCGAGUUCGCCGACGGCAGCUGGGCCUACUACAGAGAGUACAUCGCCUGGGUGGUGUUCCCCAAGAAGGUGAUGACCAAGAACGGCUACCCCCUGUUCAUCGAGGUGCACAACAAGGGCAGCUGGAGCGAGGAGAACACCGGCGACAGCGACAGCUACUUCUUCCUGAAGGGCUACAAGUGGGACGAGAGAGCCUUCGACGCCGGCAACCUGUGUCAGAAGCCCGGCGAGACCACAAGACUGACCGAGAAGUUCAACGACAUCAUCUUCAAGGUGGCCCUGCCCGCCGACCUGCCCCUGGGCGACUACAGCGUGACCAUCCCCUACACAAGCGGCAUUCAGAGACACUUCGCUAGCUACCUGGGCGCUAGAUUCGCCAUCCCCUACAACGUGGCCAAGACCCUGCCUAGAGAGAACGAGAUGCUGUUCCUGUUCAAGAACAUCGGCGGCAGUUCUGGUGGCGGUGGUUCAAGUGGUAGUGGCAGUUCAAGUGGGACAACACGACUGUUGAGCGGGCAUACGUGUUUUACGCUGACAGGUCUUCUGGGCACGCUGGUUACUAUGGGCUUGCUUACGUGAUGAGCUCGCUUUCUUGCUGUCCAAUUUCUAUUAAAGGUUCCUUUGUUCCCUAAGUCCAACUACUAAACUGGGGGAUAUUAUGAAGGGCCUUGAGCAUCUGGAUUCUGCCUAAUAAAAAACAUUUAUUUUCAUUGCAAAAAAAAAAAAAAAAAAAAAAAAAAAAAAAAAAAAAAAAAAAAAAAAAAAAAAAAAAAAAAAAAAAAAAAAAAAAAAAAAA | 98,165 | 81,000 |
